Columns and labels:
[1] = target: T1, anti-CD28 Fab (SEQ ID NOs: 202, 203); test: phage binding ELISA on captured biotinylated Fab;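 also: clonal phage supernatants added to wells preincubated with CD28 antigen or blocking buffer only, bound phage detected by ELISA with horseradish-conjugated anti-M13 antibody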
T1 construct: biotinylated and captured on neutravidin coated plates in the phage ELISA
Procedure: (§1) After panning, phage infected bacteria were plated out and colonies picked into 96 well blocks. Clonal phage was then amplified and separated from bacterial cells via centrifugation.
(§2) Clonal phage were harvested as crude supernatants and screened via standard ELISAs. […] Prior to the addition of clonal phage, wells were incubated with blocking buffer and CD28 antigen or blocking buffer alone. Without washing or aspirating, clonal phage supernatants were then added to the wells and incubated for a short time. Wells were then washed followed by detection of bound phage using a horse radish conjugated anti-M13 antibody. Clonal phage of interest were then sent for sequence analysis.

[2] = target: T2, Anti-CD28 Fab (SEQ ID NOs: 202, 203); test: phage binding ELISA, Fab on plate;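 also: clonal phage supernatant ELISA, wells preincubated with CD28 antigen or blocking buffer only, then bound phage detected using HRP-linked anti-M13 antibody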
T2 construct: biotinylated and captured on neutravidin coated plates in the phage ELISA
T2 sequence (VH, as listed by the source, chain 1 of 2): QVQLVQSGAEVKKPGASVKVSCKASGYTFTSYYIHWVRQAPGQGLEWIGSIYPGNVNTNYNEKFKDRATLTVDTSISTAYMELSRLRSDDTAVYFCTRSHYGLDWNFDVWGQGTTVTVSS
T2 sequence (VL, as listed by the source, chain 2 of 2): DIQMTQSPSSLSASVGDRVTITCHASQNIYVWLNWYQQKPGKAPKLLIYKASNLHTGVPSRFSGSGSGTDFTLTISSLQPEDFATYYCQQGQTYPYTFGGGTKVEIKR
Procedure: as §1, §2

T1 sequence (VH, as listed by the source, chain 1 of 2): as the sequence (VH, as listed by the source, chain 1 of 2) above
T1 sequence (VL, as listed by the source, chain 2 of 2): as the sequence (VL, as listed by the source, chain 2 of 2) above

Binder | Anti-CD28 Fab (SEQ ID NOs: 202, 203) signal [1] | Anti-CD28 Fab (SEQ ID NOs: 202, 203) signal [2]
YCAGHMPQYEVKCL [Phage-21] | 0.22 | –
YCAGHAWQYINKCL [Phage-13] | 0.64 | –
TCSAGAAYPWPLCL [Phage-895] | 2.36 | –
TCAAGAAWPWPQCL [Phage-890] | 2.23 | –
DCWWMFESYPGRCI [Phage-12] | 1.65 | –
TCSAGATYTWPKCF [Phage-891] | 1.87 | –
TCSEGATYTWPWCF [Phage-954] | 2.05 | –
PDCQTILFKPWCVR [Phage-4] | 2.09 | –
PDCHTILFKPWCVR [Phage-16] | 1 | –
TCAAGAAWEWPICF [Phage-1091] | – | 1.54
LCAAGFNYPWPLCL [Phage-1083] | – | 1.57
SCAAGAQYGWPMCL [Phage-1076] | – | 1.59
TCSAGAAYAWPYCL [Phage-1072] | – | 1.59
ECHWSMWAVGHACF [Phage-9] | 1.77 | –
LCAAGATYPWPLCL [Phage-894] | 2.39 | –
LCAAGATYAWPLCL [Phage-945] | 2.13 | –
YCAAGATYPWPLCL [Phage-952] | 2.08 | –
LCAAGATYPWPTCL [Phage-897] | 1.71 | –
LCAAGASYPWPTCL [Phage-967] | 2 | –
LCAAGFKYPWPLCL [Phage-964] | 2.02 | –
LCAAGATYPWPFCL [Phage-919] | 2.28 | –
MCAAGATYPWPLCL [Phage-970] | 1.99 | –

Binder | Anti-CD28 Fab (SEQ ID NOs: 202, 203) signal [1] | Anti-CD28 Fab (SEQ ID NOs: 202, 203) signal [2]
MCAAGATYPWPACL [Phage-914] | 2.3 | –
SCSAGAAWPWPWCL [Phage-1085] | – | 1.55
WCWDYREWVPMTCP [Phage-8] | 2.3 | –
WCWYYREWVPMTCP [Phage-14] | 1.85 | –
TCAAGAMWNWPQCY [Phage-1092] | – | 1.54
TCAAGATWSWPACF [Phage-892] | 2.23 | –
YCAGMSTIQLWLKC [Phage-20] | 2.16 | –
WCWDYKLWVPTQCP [Phage-7] | 2.27 | –
TCAAGAAWGWPLCF [Phage-893] | 2.3 | –
LCAAGAAYPWPMCL [Phage-1073] | – | 1.59
WCWDYKLWVPMTCP [Phage-11] | 2.51 | –
WCAAGASYPWPWCL [Phage-1077] | – | 1.58
YCAGHSPINIGKCL [Phage-10] | 1.49 | –
LCAEGFDYSWPMCL [Phage-1086] | – | 1.55
FMCLPQNPHPLCFK [Phage-3] | 0.84 | –
TCAAGATYPWPECM [Phage-1082] | – | 1.57
TCAAGATWDWPLCF [Phage-1099] | – | 1.51
LCAAGASWPWPVCL [Phage-888] | 2.16 | –
SCSAGAHYPWPQCF [Phage-898] | 1.16 | –
TCAAGAMWTWPECL [Phage-1081] | – | 1.57
TCTAVFPYEWPRCL [Phage-1078] | – | 1.57
SCAAGASYAWPYCL [Phage-18] | 1.49 | –

Binder | Anti-CD28 Fab (SEQ ID NOs: 202, 203) signal [1] | Anti-CD28 Fab (SEQ ID NOs: 202, 203) signal [2]
TCSAGAAYSWPACF [Phage-896] | 1.89 | –
ACDTYFAGMINECF [Phage-5] | 0.92 | –
YWYCSPSIVRCVLV [Phage-15] | 1.51 | –
WICDKSGSIMLCRA [Phage-17] | 0.91 | –
TCAAGASWEWPLCF [Phage-1094] | – | 1.52
YWSCFQIPFTCFYF [Phage-1] | 1.44 | –
MCTAGATYPWPACL [Phage-1084] | – | 1.56
SCSAGAMYPWPMCL [Phage-1093] | – | 1.53
SCKAGAPYYWPGCF [Phage-1088] | – | 1.54
TCSAGATYVWPDCF [Phage-1095] | – | 1.52
TCSAVFSYTWSNCF [Phage-1089] | – | 1.54
YCMGHSHEHIWKCL [Phage-23] | 0.87 | –
DCPWLSGFSRPLLC [Phage-19] | 1.27 | –
LCAEGADYPWPMCL [Phage-1098] | – | 1.51
TCSAGFSYKWPWCL [Phage-1080] | – | 1.57
GCQYPWAFDAMSCP [Phage-6] | 2.38 | –
YCAGHSHEYLAKCE [Phage-24] | 0.86 | –
WECLKYTEANACTY [Phage-2] | 1.55 | –
SCAAGATFHWPMCF [Phage-1079] | – | 1.57
TCSAGATYSWPFCF [Phage-1087] | – | 1.55
TCEAVFIYSWPFCL [Phage-1096] | – | 1.52
YCAGHTEEHYVKCM [Phage-22] | 0.62 | –

From patent US20260274955A1 (JANUX THERAPEUTICS, published 2026)
